Residue numbers refer to the chain shown, from its start.

Experiment in all cases: fluorescence anisotropy
Settings in all cases: Anisotropy: 50 mM Tris-HCl pH 7.5, 1 mM DTT, 0.1 mg/mL BSA, 10 nM FAM48, 23 °C (Kd per monomer), gel assay: 10 µM Redβ, 50 µM nt of each oligo, PBS, 37 °C

Series [1] has as its target T1, Redβ K111A K111A (bacteriophage λ) (UniProt P03698).
T1 sequence: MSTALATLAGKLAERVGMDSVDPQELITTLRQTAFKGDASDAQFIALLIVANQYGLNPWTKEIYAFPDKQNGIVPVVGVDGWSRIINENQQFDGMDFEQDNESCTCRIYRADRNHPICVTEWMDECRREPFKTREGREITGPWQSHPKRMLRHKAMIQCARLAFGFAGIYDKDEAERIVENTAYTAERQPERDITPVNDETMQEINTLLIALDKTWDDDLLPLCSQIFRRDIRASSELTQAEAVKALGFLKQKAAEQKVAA

Series [2] deals with T2, Redβ K132A K132A (bacteriophage λ) (UniProt P03698).
T2 sequence: T1 sequence with A111K, K132A

The target in series [3] is T3, Redβ K154A K154A (bacteriophage λ) (UniProt P03698).
T3 sequence: T1 sequence with A111K, K154A

Series [4] has as its target T4, Redβ K172A K172A (bacteriophage λ) (UniProt P03698).
T4 sequence: T1 sequence with A111K, K172A

For series [5], the target named is T5, Redβ K214A K214A (bacteriophage λ) (UniProt P03698).
T5 sequence: T1 sequence with A111K, K214A

In series [6] the target is T6, Redβ K245A K245A (bacteriophage λ) (UniProt P03698).
T6 sequence: T1 sequence with A111K, K245A

The target in series [7] is T7, Redβ K251A K251A (bacteriophage λ) (UniProt P03698).
T7 sequence: T1 sequence with A111K, K251A

The target in series [8] is T8, Redβ K36A K36A (bacteriophage λ) (UniProt P03698).
T8 sequence: T1 sequence with K36A, A111K

The target of series [9] is T9, Redβ K61A K61A (bacteriophage λ) (UniProt P03698).
T9 sequence: T1 sequence with K61A, A111K

For orientation: Kd means a measure of binding affinity in units of concentration. On to FAM48 48-mer ssDNA, for which the dissociation constant (Kd) in series [1] came out at 2400 nM; in series [2] it was 1770 nM; in series [3], 2100 nM; in series [4], 2600 nM; in [5], 310 nM; in series [6], 160 nM. The Kd in [7] was 190 nM; in series [8] it was 530 nM; in series [9] it was 390 nM.

(Values after PMC8303780, “Mutational Analysis of Redβ Single Strand Annealing Protein: Roles of the 14 Lysine Residues in DNA Binding and Recombination In Vivo”.)
